Results on 8 molecules are retold here after US20240150473A1, “MODULATION OF WNT SIGNALING IN GASTROINTESTINAL DISORDERS” (Surrozen Operating, Inc., priority 2021, published 2024).

Where a chain is given by its changes, count along the chain named.

The labels stand for the following.
T1: Lrp6E3E4 domain (Homo sapiens, UniProt O75581)
T1 sequence (O75581 631-1244 limits assumed): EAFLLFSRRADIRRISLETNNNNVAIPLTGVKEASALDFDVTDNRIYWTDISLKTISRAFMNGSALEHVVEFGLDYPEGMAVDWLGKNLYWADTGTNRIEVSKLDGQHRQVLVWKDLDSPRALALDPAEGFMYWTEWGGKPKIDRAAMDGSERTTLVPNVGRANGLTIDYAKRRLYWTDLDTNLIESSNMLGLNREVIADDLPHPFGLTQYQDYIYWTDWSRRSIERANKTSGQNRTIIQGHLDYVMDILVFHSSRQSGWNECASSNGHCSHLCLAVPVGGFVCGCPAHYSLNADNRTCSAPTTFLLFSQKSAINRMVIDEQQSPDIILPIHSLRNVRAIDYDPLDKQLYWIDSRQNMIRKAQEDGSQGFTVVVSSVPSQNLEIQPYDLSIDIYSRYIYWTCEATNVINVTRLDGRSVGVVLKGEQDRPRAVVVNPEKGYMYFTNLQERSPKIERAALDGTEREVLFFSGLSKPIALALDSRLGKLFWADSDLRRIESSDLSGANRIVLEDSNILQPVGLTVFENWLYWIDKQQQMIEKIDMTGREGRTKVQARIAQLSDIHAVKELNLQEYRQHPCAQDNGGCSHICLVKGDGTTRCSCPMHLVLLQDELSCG

B1: RSPO2: R-spondin 2, ligand that amplifies WNT signals (protein, UniProt Q6UXX9 22-243, looked up)
R-spondin-2: QGNRWRRSKRASYVSNPICKGCLSCSKDNGCSRCQQKLFFFLRREGMRQYGECLHSCPSGYYGHRAPDMNRCARCRIENCDSCFSKDFCTKCKVGFYLHRGRCFDECPDGFAPLEETMECVEGCEVGHWSEWGTCSRNNRTCGFKWGLETRTRQIVKKPVKDTILCPTIAESRRCKMTMRHCPGGKRTPKAKEKRNKKKKRKLIERAQEQHSVFLATDRANQ
B2: VHH26 (parental): parental camelid LRP6 binding VHH, SEQ ID NO: 25 (protein)
VHH: DVQLVESGGGLVQAGGSLRLACAGSGRIFAIYDIAWYRHPPGNQRELVAMIRPVVTEIDYADSVKGRFTISRNNAMKTVYLQMNNLKPEDTAVYYCNAKRPWGSRDEYWGQGTQVTVSS
modifications: VHH26 (parental)
B3: VHH26-H4: humanized variant of LRP6 binding VHH26, SEQ ID NO: 22 [VHH26-H4] (protein)
VHH: EVQLVESGGGLVQPGGSLRLSCAGSGRIFAIYDIAWYRQAPGKGRELVAMIRPVVTEIDYADSVKGRFTISRDNSKNTVYLQMNSLRAEDTAVYYCNAKRPWGSRDEYWGQGTTVTVSS
modifications: VHH26_H4
B4: VHH26-H3: humanized variant of LRP6 binding VHH26, SEQ ID NO: 21 (protein)
VHH: B3 VHH with L47W
modifications: VHH26_H3
B5: VHH26-H5: humanized variant of LRP6 binding VHH26, SEQ ID NO: 23 (protein)
VHH: B3 VHH with L47W, N77K
modifications: VHH26_H5
B6: VHH26-H6: humanized variant of LRP6 binding VHH26, SEQ ID NO: 24 [VHH26-H6] (protein)
VHH: B3 VHH with N77K
modifications: VHH26_H6
B7: VHH26-H2: humanized variant of LRP6 binding VHH26, SEQ ID NO: 20 (protein)
VHH: B3 VHH with R45L, L47W
modifications: VHH26_H2
B8: VHH26-H1: humanized variant of LRP6 binding VHH26, SEQ ID NO: 19 (protein)
VHH: B3 VHH with V5L, G24A, Y37V, R45L, L47W, A49S, V79L, N97A, A98K
modifications: VHH26_H1

The first data set deals with colon tissue markers (ZO-1, Ki67, Axin2, Cdkn3, S100A9, CD45). The data set is described as follows: RNA in situ hybridization and immunohistochemistry/immunofluorescence of colon tissue, DSS model. The settings on record: day 10 of the DSS model. Type of data set: in vivo, mouse. The text has this: Expression of mRNA was detected by RNAscope in situ hybridization (ACD Bio). RNAscope probes used are listed below. For colorimetric visualization, standard RNAscope® 2.5 HD Assay-Red protocol (www.acdbio.com) was followed, and images were acquired on a Leica DMi8 microscope equipped with a DFC7000T color camera. For fluorescent RNAscope in situ hybridization, standard RNAscope Multiplex Fluorescent Reagent Kit v2 Assay protocol was followed (ACD Bio Document #323100-USM) and coupled with the TSA Plus Cyanine 3 and 5 Systems. Fluorescent images were acquired with a Leica Thunder imaging system.
In brief, five-micron thick formalin fixed paraffin embedded tissue sections on slides were deparaffinized followed by citrate buffer (pH 6) antigen retrieval in a steamer. Slides were then washed thoroughly in tap water followed by 1× wash in PBST. Subsequently, tissue sections were blocked with serum free protein block (Agilent, X090930-2) for one hour at room temperature followed by incubation in primary antibodies. After primary antibody incubation, tissue sections were washed in 0.1% TX-100 in PBS (PBST) at least three times followed by incubation in secondary antibody. Afterwards, tissue sections were washed with PBST, and coverslips were mounted with Vectashield Vibrance antifade mounting medium with DAPI (Vector Laboratories, H-1800).
In the case of B1, the “Ki67 expression in duodenum and colon” value is “expansion of Ki67 expression”.

For another data set, the system named is DSS induced acute colitis in C57BL6/J mice. The data set is described as follows: DSS induced acute colitis model. Type of data set: in vivo, mouse. The settings on record: IP twice weekly or daily starting on day 4 of DSS. On the procedure: 7- to 8-week-old female C57BL6/J mice were fed with 4% (wt/vol) Dextran Sulfate Sodium (DSS, MP Biomedicals, molecular weight 36-50 kDa, Ref #160110) in drinking water from day 1 to day 7 to induce colitis and were switched to 1% DSS from day 8. […] Animals were terminated on day 10, allowing a 6-day course of protein treatment, and the colon was harvested for histology and RT-qPCR. […] The disease activity index (DAI) was calculated based on the average score of weight loss, stool consistency and the degree of intestinal bleeding (Wirtz Stefan et al., 2017). Scoring system by grading was on a scale of 0 to 4 using the following parameters: loss of weight (0, 0-1%; 1, 1-6%; 2, 6-12%; 3, 12-18%; 4, >18%), stool consistency (0, normal; 1, soft but still formed; 2, soft; 3, very soft, wet; 4, watery diarrhea) and intestine bleeding (0-1, negative hemoccult; 2, positive hemoccult; 3, blood traces in stool visible; 4, gross rectal bleeding).
Small intestine and colon were extracted and, after removing fecal content, weighted and length measured. The desired small intestine segments (duodenum, jejunum, ileum) and colon segments (ascending, transverse and descending colon) were cut out and fixed directly in 10% neutral buffered formalin (NBF) overnight. Tissues were then transferred to 70% ethanol before paraffin embedding. Paraffin tissue blocks were then sectioned to […] thickness and stained with hematoxylin and eosin (H&E) for histology analysis. Pathology reading was performed by an independent pathologist.
[…] Groups of mice were either untreated, treated with an isotype control antibody (anti-GFP), or treated with the indicated engineered Wnt agonist once on day 4 or twice on day 4 and 7. […]
The 123 mice total were grouped: (Day3=13, day4=13, day5=26, day6=24, day7=26, day10=21), with 91 used for histology endpoints, and 21 for scRNA-seq (group eliminated because of machinery). Daily food intake, BW, fecal score, and occult blood were measured. […]
As for B1, the “repair of damaged colon epithelium / colon histology” value is on record as “less significant as compared to the effect of R2M3-26”.

The next data set deals with T1, Lrp6E3E4 domain. The data set is described as follows: Bio-layer interferometry (Octet) binding kinetics of VHH26 constructs. As to conditions: SEC fraction C1/G1 (parental D3); 1:1 binding model. Here is the method: These six humanized VHH26 variants H1 to H6 and the parental VHH26 were transiently expressed in Expi293 cells (at 80 mL scale) with a C-terminal hexa-histidine tag. Proteins were purified using His-Complete resin (Roche, USA) following standard procedures. Expression levels and homogeneity of VHH26 and its humanized variants were analyzed by SDS-PAGE and SEC (size-exclusion chromatography). […] Biotinylated LRP6E3E4 diluted to 50 nM in the running buffer (PBS, 0.05% Tween-20, 0.5% BSA, pH 7.2) were captured to the SA biosensor followed by dipping into wells containing the indicated VHH26 proteins at different concentrations in running buffer or into a well with only running buffer as a reference channel. KD for each binder was calculated by Octet System software, based on fitting to a 1:1 binding model. Kinetics values (Kon, Koff, KD) from each experiment was calculated from seven technical replicates of different concentrations of the molecule tested with Octet Data Analysis 9.0 (PALL ForteBio, Fremont, CA).
Central fractions of each of these peaks were examined by Octect-BLI for their ability interact with Lrp6. Kinetics parameters such as kon, koff, and KD for interaction between VHH26 constructs and Lrp6E3E4 domain are listed in Table 2. Analyses of these parameters reveal that the binding affinity towards Lrp6 is least affected in the case of the VHH26-H5 humanized variant compared to the parent VHH26 (Table 2; FIG. 3B).
With B2, the koff is reported as 1.77E−02 and the kon came to 8.10E+05.

With B3, the koff worked out at 9.51E−02 and the kon is reported as 1.44E+05.

For the molecule B4, the koff came out at 5.22E−02 and the kon came out at 1.63E+04.

As to B5, the koff amounted to 1.77E−02 and the kon was found to be 4.28E+05.

Take B6: the koff came out at 3.11E−02 and the kon is on record as 4.52E+04.

With B7, the koff is given as 6.53E−02 and the kon was 1.48E+05.

Still in this data set, the particulars now being: SEC fraction C3/G3 (parental D3); 1:1 binding model.
For the molecule B2, the koff is recorded as 1.82E−02 and the kon stood at 1.05E+06.

In the case of B3, the koff worked out at 5.56E−03 and the kon stood at 2.90E+04.

For the molecule B8, the koff is recorded as 3.98E−03 and the kon was found to be 1.42E+04.

For the molecule B4, the koff worked out at 7.75E−03 and the kon is given as 1.84E+04.

As to B5, the koff is 1.47E−02 and the kon is given as 1.35E+05.

Consider B6, for which the koff is recorded as 8.36E−03 and the kon came out at 1.72E+04.

With B7, the koff came to 6.84E−02 and the kon amounted to 2.44E+05.
